{
  "source": "paper PMC6450606",
  "about": "“Purification and biochemical characterization of FrsA protein from Vibrio vulnificus as an esterase” (PLoS ONE, 2019)",
  "proteins": {"B1": {"name": "Fermentation-respiration switch protein (FrsA) from Vibrio vulnificus (enzyme, UniProt Q7MN61 1-415, looked up)", "chain": "MSEEVSKNLSETLFVKHKQAKETSALTQYMPTSQSLLDEIKEKNGFSWYRNLRRLQWVWQGVDPIEQEQVLARIASSKHSRTDEQWLDTVMGYHSGNWAYEWTRLGMEHQKRAGEMTNEAASEALFSASLCYSIAGYPHLKSDNLAIQAQVLANSAYLEAAKKSKYIIKQLEIPFEKGKITAHLHLTNTDKPHPVVIVSAGLDSLQTDMWRLFRDHLAKHDIAMLTVDMPSVGYSSKYPLTEDYSRLHQAVLNELFSIPYVDHHRVGLIGFRFGGNAMVRLSFLEQEKIKACVILGAPIHDIFASPQKLQQMPKMYLDVLASRLGKSVVDIYSLSGQMAAWSLKVQGFLSSRKTKVPILAMSLEGDPVSPYSDNQMVAFFSTYGKAKKISSKTITQGYEQSLDLAIKWLEDELLR", "notes": "FrsA (fermentation-respiration switch protein) of Vibrio vulnificus; theoretical mass ca. 47 kDa; Gene cloned between NdeI and XhoI of pET-28a; also called VvFrsA; recombinant VvFrsA"}},
  "target": "the molecule itself",
  "assay": "SEC; native mass of purified VvFrsA by size exclusion chromatography, buffer and concentration not told",
  "data": [
    {"protein": "B1", "values": [
      {"measurement": "stoichiometry N", "value": 2}
    ]}
  ]
}
